Laboratory results taken from patent US20240239894A1, “THERAPEUTIC BINDING MOLECULES” (MedImmune Limited, priority 2020, published 2024).

Assays:
[1] = biological target: T1, Human B7-H4-Fc (Human B7H4 ECD, Fc_6His) (human); experiment: ELISA on coated human B7H4/Fc, absorbance 450 nm, [IgG] 0.006 to 100 nM
T1 sequence (Q7Z7D3 whole entry, looked up): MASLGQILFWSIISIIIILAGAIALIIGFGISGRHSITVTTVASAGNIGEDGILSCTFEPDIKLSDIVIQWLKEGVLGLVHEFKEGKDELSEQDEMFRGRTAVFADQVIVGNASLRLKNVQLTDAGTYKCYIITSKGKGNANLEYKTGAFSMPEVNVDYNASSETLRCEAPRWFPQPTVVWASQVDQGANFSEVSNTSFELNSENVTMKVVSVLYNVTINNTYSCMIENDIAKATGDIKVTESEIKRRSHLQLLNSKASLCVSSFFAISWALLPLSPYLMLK

[2] = biological target: human B7-H4 on cells (human) (UniProt Q7Z7D3); experiment: flow cytometry, AF647-labelled antibody at 156 ng/ml, HT29 cells expressing hB7-H4

EC50 (read off the curve) [1]: 5 nM
Geometric Mean : Comp-APC-A [2]: 1200
B1: 1D11 (Genentech anti-B7-H4 mAb) (antibody, from another filing, V domains shown)
VH: QVQLQQSGAELVRPGTSVKMSCKASGYTFTSYWIGWAKQRPGHGFEWIGDIYPGGGYTNYNEKFKGKATLTADKSSSTAYMQFSSLTSEDSAIYYCARLDGSSYRGAMDSWGQGTSITVSS
VL: DIQMTQSPSSLSASLGGKVTITCKASQGFNKYVAWYQHKPGQCPRLLIHYTSTLQPGIPARFSGSGSGRDYSFSISNLEPEDSATYFCLQYGNLLYAFGGGTKLEIKR
